Where a chain is given by its changes, count along the chain named.
T1: murine CD103 (mouse, UniProt Q60677 20-1167)
T1 construct: whole, on cells; also called murine CD103+ T cells; mouse CD103
T1 sequence (looked up): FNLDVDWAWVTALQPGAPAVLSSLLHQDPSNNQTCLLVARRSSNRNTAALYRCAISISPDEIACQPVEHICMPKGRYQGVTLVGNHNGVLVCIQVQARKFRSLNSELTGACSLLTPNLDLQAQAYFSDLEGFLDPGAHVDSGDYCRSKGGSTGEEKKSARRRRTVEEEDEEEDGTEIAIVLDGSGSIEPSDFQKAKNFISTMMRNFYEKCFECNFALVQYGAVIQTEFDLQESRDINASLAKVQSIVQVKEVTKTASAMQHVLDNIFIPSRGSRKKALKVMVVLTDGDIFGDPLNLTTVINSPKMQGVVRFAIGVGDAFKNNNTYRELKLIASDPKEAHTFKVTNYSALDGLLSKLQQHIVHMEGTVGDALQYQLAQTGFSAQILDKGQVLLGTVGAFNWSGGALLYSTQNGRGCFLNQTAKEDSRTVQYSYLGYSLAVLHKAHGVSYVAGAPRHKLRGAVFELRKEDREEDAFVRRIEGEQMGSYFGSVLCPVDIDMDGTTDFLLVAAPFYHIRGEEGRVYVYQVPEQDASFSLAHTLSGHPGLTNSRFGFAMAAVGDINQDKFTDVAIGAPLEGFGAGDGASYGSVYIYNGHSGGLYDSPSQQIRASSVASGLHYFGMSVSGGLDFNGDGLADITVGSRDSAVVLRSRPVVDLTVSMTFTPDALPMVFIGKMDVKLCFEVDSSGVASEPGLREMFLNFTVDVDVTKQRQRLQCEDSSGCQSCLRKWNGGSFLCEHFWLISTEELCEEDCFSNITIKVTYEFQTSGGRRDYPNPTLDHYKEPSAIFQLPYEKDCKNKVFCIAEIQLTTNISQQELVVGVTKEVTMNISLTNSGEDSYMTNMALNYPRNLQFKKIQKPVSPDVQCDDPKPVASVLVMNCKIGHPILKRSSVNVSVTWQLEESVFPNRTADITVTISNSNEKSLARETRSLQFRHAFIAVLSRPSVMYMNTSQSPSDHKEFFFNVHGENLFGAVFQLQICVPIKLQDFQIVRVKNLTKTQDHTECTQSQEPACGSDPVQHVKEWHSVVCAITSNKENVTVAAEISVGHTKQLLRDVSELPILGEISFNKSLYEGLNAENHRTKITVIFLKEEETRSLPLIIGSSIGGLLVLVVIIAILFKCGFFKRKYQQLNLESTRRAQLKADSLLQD

B1: hCD103.05A (antibody, mouse IgG1, V domains shown)
VH: EVQLQQSGPELEKPGASAKISCKASGYSFTGYNMNWVKQSNGKSLEWIGNIDPYYGGTSYNQKFKGKATLTVDKSSSTAYMQLKSLTSEDSAVYYCARSFYGYDAGSPYNYAMDYWGQGTPVTVSP
VL: DIVMTQSHKFMSTSVGDRVSITCKASQDVGTFVAWYQQKPGQSPKLLIYWASTRHTGVPDRFTGSGSGTDFTLTISNVQSEDLADYFCHQYSSYPYTFGGGTQLEIK
notes: Also tested labelled with AF647, conjugated with Df and labelled with 89Zr; these are written under this molecule; also called clone 05A; hCD103.05 mAb
B2: hCD103.06A (antibody, mouse IgG1, V domains shown)
VH: QVQLQQPGSELVRPGASVKLSCKASGYTFTSYWMHWVKQRHGQGLEWIGNIYPGSGSTNYDEKFKSKGTLTVDTSSSTAYMHLSSLTSEDSAVYYCTRGVYDNPYYFDYWGQGTTLTVSS
VL: DIQMTQSSSNLSVSLGGRVTITCKASDHINNWLAWYQQKPGNAPRVLISGATSLETGVPSRFSGSGSGKDYTLSITSLQTEDVATYYCQQYWSIPLTFGAGTKLELK
notes: also called clone 06A; hCD103.06 mAb
B3: hCD103.07A (antibody, mouse IgG1, V domains shown)
VH: EVQLQESGPSLVKPSQTLSLTCSVTGDSITSGYWNWIRKFPGNKLEYMGYITYSGSTYYNPSLKSRISITRDTSKNQYYLQLNSVTTEDTATYYCARNYYGSSSMDYWGQGTSVTVSS
VL: DIVMTQSQKFMSTSVADRVSVTCKASQNVGSDVAWYQQKPGQSPKSLIYSASYRYSGVPDRFTGSGSGTDFTLTISNVQSEDLAEYFCQQYNSYPSTFGGGTKLEIK
notes: also called clone 07A
B4: hCD103.01A (antibody, V domains shown)
VH: B3 VH with A96T, N98H, S103D, S104A
VL: DIVMTQSHKFMSTSVGDRVSITCKASQDVSIAVAWYQQRPGQSPKLLIYSASYRYTGVPDRFTGSGSGTDFTFTISSVQAEDLAVYYCQQHYSTPWTFGGGTKLEIK
notes: Also tested labelled with AF647, conjugated with Df and labelled with 89Zr; these are written under this molecule; also called clone 01A; hCD103.01 mAb

biological target: T2, human CD103 (integrin Alpha-E) / human integrin Beta-7 heterodimer on cells (human, UniProt P38570 19-1179; P26010 20-798); assay: flow cytometry competition on CD103+CD8+ T cells; pre-incubation with unlabeled 02A; table n=1
T2 construct: the assay field tells which cells; also called hCD103/hBeta7; CHO.K1-hCD103/hBeta7
Procedure: (§1) Percentage binding of fluorescently labeled mAbs was determined using flow cytometry. Maximum binding was set at 100%.
(§2) Percentage binding of fluorescently labeled mAbs was determined using flow cytometry. Maximum binding was set at 100%

T2 sequence (P38570 19-1179 limits assumed, chain 1 of 2): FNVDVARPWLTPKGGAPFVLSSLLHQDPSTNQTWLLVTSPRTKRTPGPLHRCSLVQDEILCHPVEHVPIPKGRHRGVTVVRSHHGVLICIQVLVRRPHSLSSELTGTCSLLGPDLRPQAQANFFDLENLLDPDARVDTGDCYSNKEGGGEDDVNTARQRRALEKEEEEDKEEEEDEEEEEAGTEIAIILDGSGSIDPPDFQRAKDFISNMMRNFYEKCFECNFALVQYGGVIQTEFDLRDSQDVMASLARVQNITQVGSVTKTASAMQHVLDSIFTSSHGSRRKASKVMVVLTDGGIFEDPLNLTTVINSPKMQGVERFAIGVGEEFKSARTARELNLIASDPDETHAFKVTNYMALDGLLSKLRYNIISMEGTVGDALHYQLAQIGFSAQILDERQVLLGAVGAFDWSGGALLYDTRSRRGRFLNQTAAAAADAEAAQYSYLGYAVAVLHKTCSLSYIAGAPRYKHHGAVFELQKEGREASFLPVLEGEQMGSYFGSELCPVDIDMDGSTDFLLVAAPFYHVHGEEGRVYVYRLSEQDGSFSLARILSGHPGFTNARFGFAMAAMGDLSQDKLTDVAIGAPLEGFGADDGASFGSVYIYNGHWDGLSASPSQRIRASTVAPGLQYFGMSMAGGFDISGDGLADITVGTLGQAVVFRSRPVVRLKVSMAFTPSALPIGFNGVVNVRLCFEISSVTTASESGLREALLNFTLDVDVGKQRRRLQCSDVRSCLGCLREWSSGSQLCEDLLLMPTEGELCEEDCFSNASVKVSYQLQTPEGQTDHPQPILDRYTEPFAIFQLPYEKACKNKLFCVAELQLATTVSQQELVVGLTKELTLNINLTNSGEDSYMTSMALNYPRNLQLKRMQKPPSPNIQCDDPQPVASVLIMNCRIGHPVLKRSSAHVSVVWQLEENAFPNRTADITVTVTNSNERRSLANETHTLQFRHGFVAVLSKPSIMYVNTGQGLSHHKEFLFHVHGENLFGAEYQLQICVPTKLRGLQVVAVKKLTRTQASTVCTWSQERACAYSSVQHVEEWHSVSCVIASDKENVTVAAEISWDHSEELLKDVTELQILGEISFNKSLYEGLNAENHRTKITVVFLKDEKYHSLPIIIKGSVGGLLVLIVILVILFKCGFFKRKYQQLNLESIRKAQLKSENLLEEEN
T2 sequence (P26010 20-798 limits assumed, chain 2 of 2): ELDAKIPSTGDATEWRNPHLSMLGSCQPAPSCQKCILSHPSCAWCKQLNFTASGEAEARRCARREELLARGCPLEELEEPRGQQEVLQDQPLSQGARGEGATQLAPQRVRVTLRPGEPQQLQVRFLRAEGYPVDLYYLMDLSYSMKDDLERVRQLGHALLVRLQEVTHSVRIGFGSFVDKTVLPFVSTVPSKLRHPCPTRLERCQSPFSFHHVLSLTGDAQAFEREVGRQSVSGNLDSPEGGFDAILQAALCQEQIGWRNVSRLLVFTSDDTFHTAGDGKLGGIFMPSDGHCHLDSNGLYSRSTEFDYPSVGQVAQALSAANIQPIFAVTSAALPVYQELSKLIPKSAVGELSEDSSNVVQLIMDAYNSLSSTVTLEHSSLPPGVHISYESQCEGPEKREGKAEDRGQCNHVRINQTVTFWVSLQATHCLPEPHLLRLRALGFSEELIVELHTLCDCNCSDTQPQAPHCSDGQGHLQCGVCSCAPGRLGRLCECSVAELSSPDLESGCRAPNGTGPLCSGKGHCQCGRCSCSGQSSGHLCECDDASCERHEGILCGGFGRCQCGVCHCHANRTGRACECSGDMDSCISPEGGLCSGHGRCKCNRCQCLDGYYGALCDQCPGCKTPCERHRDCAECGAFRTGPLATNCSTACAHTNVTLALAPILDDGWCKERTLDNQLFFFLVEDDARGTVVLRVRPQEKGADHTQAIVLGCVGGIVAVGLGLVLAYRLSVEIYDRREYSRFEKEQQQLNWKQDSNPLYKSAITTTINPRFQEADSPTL

Binder | % binding of the fluorescently labeled mAb (IgG pre-incubation = 100) [%]
B1 | 4.3
B2 | 104
B3 | 0.5
B4 | 2.3

biological target: T2, human CD103 (integrin Alpha-E) / human …; assay: flow cytometry competition on CD103+CD8+ T cells; pre-incubation with unlabeled 02A; table n=2
Procedure: as §1, §2

Binder | % binding of the fluorescently labeled mAb (IgG pre-incubation = 100) [%]
B1 | 4.6
B2 | 103
B3 | 0.9
B4 | 3

biological target: T2, human CD103 (integrin Alpha-E) / human …; assay: flow cytometry competition on CD103+CD8+ T cells; pre-incubation with unlabeled MCA708 (f4); table n=1
Procedure: as §1, §2

Binder | % binding of the fluorescently labeled mAb (IgG pre-incubation = 100) [%]
B1 | 94.6
B2 | 0.7
B3 | 92
B4 | 83.9

biological target: T2, human CD103 (integrin Alpha-E) / human …; assay: flow cytometry competition on CD103+CD8+ T cells; pre-incubation with unlabeled BERACT; table n=1
Procedure: as §1, §2

Binder | % binding of the fluorescently labeled mAb (IgG pre-incubation = 100) [%]
B1 | 4.2
B2 | 84.9
B3 | 0.7
B4 | 2.5

biological target: T2, human CD103 (integrin Alpha-E) / human …; assay: flow cytometry competition on CD103+CD8+ T cells; pre-incubation with unlabeled 06A; table n=1
Procedure: as §1, §2

Binder | % binding of the fluorescently labeled mAb (IgG pre-incubation = 100) [%]
B1 | 101
B2 | 18.7
B3 | 73.2
B4 | 81.8

biological target: T1, murine CD103; assay: flow cytometry on mouse spleen and thymus cells
Procedure: Additional aliquots were stained with relevant isotype controls or as fluorescence minus one controls (“FMO” controls are cells stained with all the fluorophores minus one fluorophore; the relevant isotype controls contain either a directly labeled unspecific isotype antibody or an unspecific isotype antibody combined with secondary detection reagent). Percentage binding of fluorescently labeled mAbs was determined using flow cytometry. Maximum binding was set at 100%. […] Data analysis was performed with FlowJo v10 (Tree Star) and surface receptor levels were expressed as mean fluorescent intensity (MFI).

Binder | binding result
B1 | no binding
B2 | no binding
B3 | no binding
B4 | no binding

biological target: T2, human CD103 (integrin Alpha-E) / human …; assay: flow cytometry competition on CD103+CD8+ T cells; pre-incubation with unlabeled MCA708 (f4); table n=2
Procedure: as §1, §2

Binder | % binding of the fluorescently labeled mAb (IgG pre-incubation = 100) [%]
B1 | 89.7
B2 | 1
B3 | 92.5
B4 | 92.3

biological target: T2, human CD103 (integrin Alpha-E) / human …; assay: flow cytometry competition on CD103+CD8+ T cells; pre-incubation with unlabeled 06A; table n=2
Procedure: as §1, §2

Binder | % binding of the fluorescently labeled mAb (IgG pre-incubation = 100) [%]
B1 | 87.4
B2 | 18.9
B3 | 81.6
B4 | 90.9

biological target: T2, human CD103 (integrin Alpha-E) / human …; assay: flow cytometry competition on CD103+CD8+ T cells; pre-incubation with unlabeled 05A; table n=2
Procedure: as §1, §2

Binder | % binding of the fluorescently labeled mAb (IgG pre-incubation = 100) [%]
B1 | 14.2
B2 | 102
B3 | 11.4
B4 | 77.4

biological target: T2, human CD103 (integrin Alpha-E) / human …; assay: cell ELISA on CHO.K1-hCD103/beta7 cells, OD450-620, upper left panel

Binder | EC50 (read off the curve) [µg/mL]
B1 | ~0.02
B2 | ~0.02
B4 | ~0.02

— patent US20230183354A1 (IMMIOS HOLDING B V, published 2023)
